Biological target: the molecule itself
Assay: native gel or EMSA

Row | Protein | binding result
1 | HBc149H6 (contiguous truncated HBV core protein, aa 1-149, with C terminal His6) (domain or fragment) MDIDPYKEFGATVELLSFLPSDFFPSVRDLLDTASALYREALESPEHCSPHHTALRQAILCWGELMTLATWVGVNLEDPASRDLVVSYVNTNMGLKFRQLLWFHISCLTFGRETVIEYLVSFGVWIRTPPAYRPPNAPILSTLPETTVV | binds
2 | SplitCore183 (split subunit of coreN plus coreC183) (complex) chain 1: MDIDPYKEFGATVELLSFLPSDFFPSVRDLLDTASALYREALESPEHCSPHHTALRQAILCWGELMTLATWVGVNLEDP chain 2: MASRDLVVSYVNTNMGLKFRQLLWFHISCLTFGRETVIEYLVSFGVWIRTPPAYRPPNAPILSTLPETTVVRRRGRSPRRRTPSPRRRRSQSPRRRRSQSRESQC | binds
3 | SplitCore149 (split subunit of coreN plus coreC149) (complex) chain 1: MDIDPYKEFGATVELLSFLPSDFFPSVRDLLDTASALYREALESPEHCSPHHTALRQAILCWGELMTLATWVGVNLEDP chain 2: MASRDLVVSYVNTNMGLKFRQLLWFHISCLTFGRETVIEYLVSFGVWIRTPPAYRPPNAPILSTLPETTVV | binds

From article PMC3216493 (Scientific Reports, 2011)
